Results from PMC12667214, “Phosphomimetic mutations near active sites of proteins in Thermus thermophilus suggest a widespread regulatory mechanism” (FEBS Open Bio, 2025).
Changes are numbered by the printed parent chain. In names and notes the source's numbering stands.

How the values were obtained:
[1] = substrate: Nc1ncnc2c1ncn2[C@@H]1O[C@H](COP(=O)(O)OP(=O)(O)OP(=O)(O)O)[C@@H](O)[C@H]1O; test: pyruvate kinase/lactate dehydrogenase coupled assay, A340; type: biochemical, Thermus thermophilus; conditions: 1 mM CMP, 25 °C, pH 7.5, 5 mM MgCl2
Text: (§1) pyruvate kinase/lactate dehydrogenase coupled assay, A340 on ttCMPK (CMP kinase)

[2] = substrate: Nc1ccn([C@@H]2O[C@H](COP(=O)(O)O)[C@@H](O)[C@H]2O)c(=O)n1; test: as above; type: biochemical, Thermus thermophilus; conditions: 1 mM ATP, 25 °C, pH 7.5, 5 mM MgCl2
Text: as §1

[3] = substrate: NC(=O)c1ccc[n+]([C@@H]2O[C@H](COP(=O)(O)OP(=O)(O)OC[C@H]3O[C@@H](n4cnc5c(N)ncnc54)[C@H](OP(=O)(O)O)[C@@H]3O)[C@@H](O)[C@H]2O)c1; test: A340 spectrophotometry; type: biochemical, Thermus thermophilus; conditions: 2 mM isocitrate, 5 mM MgCl2, 100 mM KCl, 50 mM Tris-HCl pH 7.5, 60 °C
Text: (§2) A340 spectrophotometry on ttIDH (isocitrate dehydrogenase)

[4] = substrate: O=C(O)C[C@H](C(=O)O)[C@@H](O)C(=O)O; test: A340 spectrophotometry; type: biochemical, Thermus thermophilus; conditions: 4 mM NADP+, 5 mM MgCl2, 100 mM KCl, 50 mM Tris-HCl pH 7.5, 60 °C
Text: as §2

[5] = substrate: O=C(O)CC(=O)C(=O)O; test: purified protein; conditions: 0.15 mM NADH, 5 mM MgCl2, 100 mM KCl, 50 mM Tris-HCl pH 7.5, 30 °C, 30.0 °C
[6] = substrate: NC(=O)C1=CN([C@@H]2O[C@H](COP(=O)(O)OP(=O)(O)OC[C@H]3O[C@@H](n4cnc5c(N)ncnc54)[C@H](O)[C@@H]3O)[C@@H](O)[C@H]2O)C=CC1; test: A340 spectrophotometry; type: biochemical, Thermus thermophilus; conditions: 25 μM oxaloacetate, 5 mM MgCl2, 100 mM KCl, 50 mM Tris-HCl pH 7.5, 30 °C
Text: A340 spectrophotometry on ttMDH (malate dehydrogenase)

[7] = substrate: Nc1ncnc2c1ncn2[C@@H]1O[C@H](COP(=O)(O)O)[C@@H](O)[C@H]1O; test: pyruvate kinase/lactate dehydrogenase coupled assay, A340; type: biochemical, Thermus thermophilus; conditions: 1 mM ATP, 5 mM MgCl2, 100 mM KCl, 50 mM Tris-HCl pH 7.5, 25 °C
Text: pyruvate kinase/lactate dehydrogenase coupled assay, A340 on ttAMPK (AMP kinase)

[8] = substrate: O=c1ccn([C@@H]2O[C@H](COP(=O)(O)O)[C@@H](O)[C@H]2O)c(=O)[nH]1; test: purified protein; conditions: 1 mM ATP, 25 °C, pH 7.5, 5 mM MgCl2, 25.0 °C
[9] = substrate: Nc1ncnc2c1ncn2[C@@H]1O[C@H](COP(=O)(O)OP(=O)(O)OP(=O)(O)O)[C@@H](O)[C@H]1O; test: pyruvate kinase/lactate dehydrogenase coupled assay, A340; type: biochemical, Thermus thermophilus; conditions: excess UMP (methods print 1 mM CMP), 25 °C, pH 7.5, 5 mM MgCl2
[10] = substrate: O=P(O)(O)OP(=O)(O)O; test: phosphate release, BIOMOL Green, A650; type: biochemical, Thermus thermophilus; conditions: 2 mM MgCl2, 100 mM KCl, 50 mM Tris-HCl pH 7.5, 60 °C
Text: phosphate release, BIOMOL Green, A650 on ttPPase (inorganic pyrophosphatase)

B1: ttCMPK (CMP kinase) (Thermus thermophilus HB8; S11E) (protein)
chain: MRGIVTIDGPEASGKSSVARRVAAALGVPYLSSGLLYRAAAFLALRAGVDPGDEEGLLALLEGLGVRLLAQAEGNRVLADGEDLTSFLHTPEVDRVVSAVARLPGVRAWVNRRLKEVPPPFVAEGRDMGTAVFPEAAHKFYLTASPEVRAWRRARERPQAYEEVLRDLLRRDERDKAQSAPAPDALVLDTGGMTLDEVVAWVLAHIRR
notes: recombinant in E. coli C41(DE3)pRARE2, pET-11a, no tag mentioned; monomer
- Km [1]: 60 ± 14 µM
- kcat [1]: 0.05 ± 0.01 s⁻¹

B2: ttCMPK (CMP kinase) (Thermus thermophilus HB8; S11A) (protein)
chain: B1 chain with E11A
notes: as for B1
- Km [2]: 53 ± 3 µM
- kcat [2]: 57 ± 8 s⁻¹

B3: ttCMPK (CMP kinase) (Thermus thermophilus HB8) (protein)
chain: B1 chain with E11S
notes: as for B1
- Km [2]: 61 ± 19 µM
- kcat [2]: 54 ± 16 s⁻¹
- Km [1]: 53 ± 1 µM
- kcat [1]: 40 ± 1 s⁻¹

B4: ttIDH (isocitrate dehydrogenase) (Thermus thermophilus HB8) (protein)
chain: PLITTETGKKMHVLEDGRKLITVIPGDGIGPECVEATLKVLEAAKAPLAYEVREAGASVFRRGIASGVPQETIESIRKTRVVLKGPLETPVGYGEKSANVTLRKLFETYANVRPVREFPNVPTPYAGRGIDLVVVRENVEDLYAGIEHMQTPSVAQTLKLISWKGSEKIVRFAFELARAEGRKKVHCATKSNIMKLAEGTLKRAFEQVAQEYPDIEAVHIIVDNAAHQLVKRPEQFEVIVTTNMNGDILSDLTSGLIGGLGFAPSANIGNEVAIFEAVHGSAPKYAGKNVINPTAVLLSAVMMLRYLEEFATADLIENALLYTLEEGRVLTGDVVGYDRGAKTTEYTEAIIQNLGKTPRKTQVRGYKPFRLPQVDGAIAPIVPRSRRVVGVDVFVETNLLPEALGKALEDLAAGTPFRLKMISNRGTQVYPPTGGLTDLVDHYRCRFLYTGEGEAKDPEILDLVSRVASRFRWMHLEKLQEFDGEPGFTKAQGED
notes: recombinant in E. coli C41(DE3)pRARE2, pET-11a, no tag mentioned
- Km [3]: 39 ± 1 µM
- kcat [3]: 30 ± 2 s⁻¹
- Km [4]: 34 ± 2 µM
- kcat [4]: 26 ± 1 s⁻¹

B5: ttIDH (isocitrate dehydrogenase) (Thermus thermophilus HB8; S98E) (protein)
chain: B4 chain with S97E
notes: as for B4
- Km [3]: 144 ± 21 µM
- kcat [3]: 0.12 ± 0 s⁻¹
- Km [4]: 178 ± 28 µM
- kcat [4]: 0.19 ± 0.02 s⁻¹

B6: ttMDH (malate dehydrogenase) (Thermus thermophilus HB8) (protein)
chain: MKAPVRVAVTGAAGQIGYSLLFRIAAGEMLGKDQPVILQLLEIPQAMKALEGVVMELEDCAFPLLAGLEATDDPKVAFKDADYALLVGAAPRKAGMERRDLLQVNGKIFTEQGRALAEVAKKDVKVLVVGNPANTNALIAYKNAPGLNPRNFTAMTRLDHNRAKAQLAKKTGTGVDRIRRMTVWGNHSSTMFPDLFHAEVDGRPALELVDMEWYEKVFIPTVAQRGAAIIQARGASSAASAANAAIEHIRDWALGTPEGDWVSMAVPSQGEYGIPEGIVYSFPVTAKDGAYRVVEGLEINEFARKRMEITAQELLDEMEQVKALGLI
notes: as for B4
- Km [5]: 8.6 ± 0.4 µM
- kcat [5]: 203 ± 5 s⁻¹
- Km [6]: 2.7 ± 0.9 µM
- kcat [6]: 126 ± 14 s⁻¹

B7: ttMDH (malate dehydrogenase) (Thermus thermophilus HB8; S236A) (protein)
chain: B6 chain with S236A
notes: as for B4
- Km [5]: 52 ± 2 µM
- kcat [5]: 622 ± 8 s⁻¹
- Km [6]: 7.6 ± 0.2 µM
- kcat [6]: 468 ± 15 s⁻¹

B8: ttAMPK (AMP kinase) (Thermus thermophilus HB8) (protein)
chain: MDVGQAVIFLGPPGAGKGTQASRLAQELGFKKLSTGDILRDHVARGTPLGERVRPIMERGDLVPDDLILELIREELAERVIFDGFPRTLAQAEALDRLLSETGTRLLGVVLVEVPEEELVRRILRRAELEGRSDDNEETVRRRLEVYREKTEPLVGYYEARGVLKRVDGLGTPDEVYARIRAALGI
notes: recombinant in E. coli Rosetta2(DE3), pET-3a, no tag mentioned; monomer
- Km [7]: 23 ± 1 µM
- kcat [7]: 111 ± 3 s⁻¹

B9: ttAMPK (AMP kinase) (Thermus thermophilus HB8; S34A) (protein)
chain: B8 chain with S34A
notes: as for B8
- Km [7]: 71 ± 2 µM
- kcat [7]: 142 ± 4 s⁻¹

B10: ttAMPK (AMP kinase) (Thermus thermophilus HB8; S34E) (protein)
chain: B8 chain with S34E
notes: as for B8
- Km [7]: 153 ± 1 µM
- kcat [7]: 3.7 s⁻¹

B11: ttUMPK (UMP kinase) (Thermus thermophilus HB8) (protein)
chain: MKYKRVLLKLSGEFLTRNGFGIEPEATQALAREIKAAYDTGVQLAIVIGAGNLWRGARQGVGMDRATADYIGMLATIMNALALQDALESLGVPTRVQTALTITQVAEPYIRRRALRHLEKERIVIFGGGTGNPFFSTDTAAALRALEVGAEVVLMAKNKVDGVYSDDPRKNPEAVRFDELTYLEVLNRGLQVMDTTAITLCMEAGLPIVVFDIFKPGALVGIIQGEKVGTLIH
notes: recombinant in E. coli C41(DE3)pRARE2, pET-11a, no tag mentioned; hexamer (prokaryotic UMP kinases)
- Km [8]: 74 ± 10 µM
- kcat [8]: 21 ± 1 s⁻¹
- Km [9]: 214 ± 7 µM
- kcat [9]: 14 ± 0 s⁻¹

B12: ttUMPK (UMP kinase) (Thermus thermophilus HB8; S11A) (protein)
chain: B11 chain with S11A
notes: as for B11
- Km [9]: 732 ± 206 µM
- kcat [9]: 0.04 ± 0.02 s⁻¹

B13: ttPPase (inorganic pyrophosphatase) (Thermus thermophilus HB8) (protein)
chain: ANLKSLPVGDKAPEVVHMVIEVPRGSGNKYEYDPDLGAIKLDRVLPGAQFYPGDYGFIPSTLAEDGDPLDGLVLSTYPLLPGVVVEVRVVGLLLMEDEKGGDAKVIGVVAEDQRLDHIQDIGDVPEGVKQEIQHFFETYKALEAKKGKWVKVTGWRDRKAALEEVRACIARYKG
notes: as for B4
- Km [10]: 17 ± 2 µM
- kcat [10]: 62 ± 11 s⁻¹

B14: ttPPase (inorganic pyrophosphatase) (Thermus thermophilus HB8; Y140F) (protein)
chain: B13 chain with Y139F
notes: as for B4
- Km [10]: 53 ± 0 µM
- kcat [10]: 19 ± 3 s⁻¹
